Experimental data as given in publication PMC10934500, “Exploring the Anti-Diabetic Potential of Quercetagitrin through Dual Inhibition of PTPN6 and PTPN9” (Nutrients, 2024).

Test system: Cc1cc(=O)oc2c(F)c(OP(=O)(O)O)c(F)cc12
Assay: Michaelis-Menten kinetics (KM) with purified enzyme, fluorescence
Type: biochemical, Homo sapiens

## PTPN6 (Homo sapiens)
  Km: 187.5 µM
  Vmax: 10.8 µM/min
  kcat: 30 s⁻¹
  kcat/Km: 162000 M⁻¹ s⁻¹
